Measured values as given in patent US7829301B2, “Screening assays for binding antagonists of the AMD-associated variant of factor H (H384)” (The University of Manchester, priority 2006, dated 2010).

Key:
[1] = Microtitre plate assay: biotinylated proteins binding to unfractionated heparin immobilized on EpranEx plates
Experimental: The heparin/HS/DS-binding activities of the FHCCP6-8(H384) and FHCCP6-8(Y384) variants (using biotinylated-FHCCP6-8 constructs), and in some cases full-length Factor H (detected with an antibody), were compared using an assay where the glycosaminoglycans (GAGs) were immobilized on allylamine-coated EpranEx plates (Mahoney et al (2004) Anal. Biochem. 330, 123-129), kindly supplied by Plasso Technology Ltd., Sheffield, UK. […]
(§1) The following GAG preparations were analyzed: unfractionated heparins corresponding to the 2nd, 4th and 5th International Standards (denoted here as 2IS, 4IS and 5IS, respectively (Mulloy et al. (2000) Thromb. Haemost. 52, 148-153)); enoxaparin, dalteparin and LMr heparin from Sigma (Cat. No. H3400); selectively desulfated heparins prepared from 2IS heparin as described in Mulloy et al. (1994) Carbohydr. […]
(§2) In the case of the biotinylated FHCCP6-8(H384) and FHCCP6-8(Y384) constructs, bound material was detected by adding 200 μl/well of a 1:10,000 dilution of ExtrAvidin alkaline phosphatase (Sigma, Cat. No. E-2636) for 30 minutes. […]
(§3) In these plate assays all data points were determined in quadruplicate from each of two independent experiments.

[2] = Microtitre plate assay: biotinylated proteins binding to selectively desulphated 2IS heparin
Source text: (§4) The heparin/HS/DS-binding activities of the FHCCP6-8(H384) and FHCCP6-8(Y384) variants (using biotinylated-FHCCP6-8 constructs), and in some cases full-length Factor H (detected with an antibody), were compared using an assay where the glycosaminoglycans (GAGs) were immobilized on allylamine-coated EpranEx plates (Mahoney et al (2004) Anal. Biochem. 330, 123-129), kindly supplied by Plasso Technology Ltd., Sheffield, UK. Previously, we have shown that heparin/HS can bind non-covalently to surfaces plasma polymerized with allylamine in such a way that these GAGs can still associate with a wide-range of proteins (Mahoney et al. (2005) J. Biol. Chem. 280, 27044-27055; Mahoney et al. (2004) ibid).
as §1
In the case of the biotinylated FHCCP6-8(H384) and FHCCP6-8(Y384) constructs, bound material was detected by adding 200 μl/well of a 1:10,000 dilution of ExtrAvidin alkaline phosphatase (Sigma, Cat. No. E-2636) for 30 minutes. […] For the full-length protein, the level of binding (to 4IS, HSI and HSII) was determined by incubation of the plates for 30 min with MRC OX23 (a monoclonal antibody against factor H (Sim et al. (1983) Biosci. Rep. 3, 1119-1131; 1 μg/well) followed by a 1:1000 dilution of alkaline phosphatase-conjugated goat anti-mouse IgG (Sigma, Cat. No. A-3438) for another 30 minutes. The plates were then developed for 10 min as described above. The absorbance values at 405 nm were determined and corrected against blank wells (i.e., those that contained no GAGs).

[3] = Microtitre plate assay: binding to HSI and HSII immobilized on EpranEx plate; parameters: species or system pig; conditions: HS immobilized on allylamine-coated EpranEx plate
Source text: as §4, §1, §2

[4] = Biotinylated bovine HS plate assay; format: binding; conditions: proteins immobilised at 1 μg/well
Experimental: The HS binding properties of FHCCP6-8(H384), FHCCP6-8(Y384) and full length Factor H were further tested using biotinylated bovine kidney heparan sulphate (Sigma) where the proteins were coated onto the wells of a Maxisorp microtitre plate (NUNC) at 1 μg/well in PBS (Oxoid; 137 mM NaCl, 2.6 mM KCl, 8.2 mM Na2HPO4, 1.5 mM KH2PO4, pH 7.3) overnight at room temperature. Link_TSG6 (denoted as L-TSG-6 in FIG. 9), a known HS-binding domain (see Mahoney et al. (2005) J. Biol. Chem. 280, 27044-27055) was immobilised at 1 μg/well as a positive control. Plates were blocked the next morning with 1% (w/v) BSA (Sigma, Cat. No. A-4503) in standard assay buffer (20 mM HEPES, 130 mM NaCl, 0.05% (v/v) Tween-20, pH 7.3) for 90 minutes at 37° C. The standard assay buffer was used for all subsequent incubations, dilutions and washes at room temperature. The biotinylated HS was incubated at various concentrations with the immobilised proteins for 4 hours. Bound material was detected by adding 200 μl/well of a 1:10,000 dilution of ExtrAvidin alkaline phosphatase (Sigma, Cat. No. E-2636) for 30 minutes. Plates were then developed with 200 μl/well of 1 mg/ml disodium p-nitrophenylphosphate (pNPP; Sigma) in 0.05 M Tris-HCl, 0.1 M NaCl, pH9.3, and developed for 40 minutes; the absorbance at 405 nm was measured and the signal from blank wells subtracted.

[5] = Microtitre plate assay: biotinylated proteins binding to immobilized dermatan sulphate; parameters: species or system porcine; conditions: biotinylated proteins 0-10 pmol/well
Source text: as §4, §1, §2

[6] = Microtitre plate assay: biotinylated-4IS heparin binding to immobilized proteins
Experimental: Alternatively, the unlabelled FHCCP6-8(H384), FHCCP6-8(Y384) and mutant proteins (i.e., K370A, R386A, K387A in the context of the FHCCP6-8(H384) construct) were adsorbed at 1 μg/ml in PBS onto microtitre plates (Nunc Maxisorb, Kastrup, Denmark) and their ligand-binding activities at pH 7.3 were determined using biotinylated-4IS heparin essentially as described in Mahoney et al. (2005) ibid. Plate assays were carried out in 20 mM HEPES, 130 mM NaCl, 0.05% (v/v) Tween-20, pH 7.3 and the level of bound heparin determined as described above for the biotinylated proteins.
as §3

Row | Molecule | binding to immobilized unfractionated heparins compared to FHCCP6-8(Y384) ([1]; 2IS, 4IS and 5IS) | effect of removal of 2-O- or N-sulfate on binding ([2]; 2-O-deS or N-deS vs unmodified 2IS) | binding to HS preparations HSI and HSII [3] | interaction with biotinylated bovine kidney HS [4] | interaction with DS [5] | binding to 4IS heparin relative to FHCCP6-8(H384) [6] | binding to 4IS heparin relative to FHCCP6-8(H384) ([1]; heparin bound to allylamine-coated surface, biotinylated proteins) | binding to 6-O-deS and N-deS/re-N-Ac preparations versus parental 2IS [2] | effect of removal of 2-O-, 2,6-O- or N-sulfates on binding ([2]; vs unmodified 2IS)
1 | FHCCP6-8(H384): recombinant protein of Factor H CCPs 6-8, H384 allotype, with N-terminal non-authentic glycine (SEQ ID NO: 1) (protein, listed as Homo sapiens, VARIANT (1)...(188) Protein sequence of the FHCCP6-8 (H384) construct) MGTLKPCDYPDIKHGGLYHENMRRPYFPVAVGKYYSYYCDEHFETPSGSYWDHIHCTQDGWSPAVPCLRKCYFPYLENGYNQNHGRKFVQGKSIDVACHPGYALPKAQTTVTCMENGWSPTPRCIRVKTCSKSSIDIENGFISESQYTYALKEKAKYQCKLGYVTADGETSGSITCGKDGWSAQPTCI | more of the FHCCP6-8(H384) protein bound | large reduction | lack of activity | interact | interact with DS, albeit to a lesser degree than heparin |  |  |  | 
2 | FHCCP6-8(Y384): recombinant Factor H CCPs 6-8, Y384 variant obtained by site-directed mutagenesis (SEQ ID NO: 3) (protein, listed as Homo sapiens, VARIANT (1)...(188) FHCCP6-8 (Y384 allotype of mature Factor H)) MGTLKPCDYPDIKHGGLYHENMRRPYFPVAVGKYYSYYCDEHFETPSGSYWDHIHCTQDGWSPAVPCLRKCYFPYLENGYNQNYGRKFVQGKSIDVACHPGYALPKAQTTVTCMENGWSPTPRCIRVKTCSKSSIDIENGFISESQYTYALKEKAKYQCKLGYVTADGETSGSITCGKDGWSAQPTCI |  |  | lack of activity | interact | interact with DS, albeit to a lesser degree than heparin | bind less well | bind less well | indistinguishable | small effect
